In paper doi:10.1101/2022.06.04.494841:
Values joined by “and” are separate entries in the source; they are usually repeats but may differ in a detail not shown here. Equal entries are not always repeated.

Target: MoFe-protein (molybdenum iron protein of the MoFe-nitrogenase) from Azotobacter vinelandii (Azotobacter vinelandii) (UniProt P07328)
Assay: cryo-EM structure

Sequence of UniProt P07328 (P07328 whole entry, chain 1 of 2): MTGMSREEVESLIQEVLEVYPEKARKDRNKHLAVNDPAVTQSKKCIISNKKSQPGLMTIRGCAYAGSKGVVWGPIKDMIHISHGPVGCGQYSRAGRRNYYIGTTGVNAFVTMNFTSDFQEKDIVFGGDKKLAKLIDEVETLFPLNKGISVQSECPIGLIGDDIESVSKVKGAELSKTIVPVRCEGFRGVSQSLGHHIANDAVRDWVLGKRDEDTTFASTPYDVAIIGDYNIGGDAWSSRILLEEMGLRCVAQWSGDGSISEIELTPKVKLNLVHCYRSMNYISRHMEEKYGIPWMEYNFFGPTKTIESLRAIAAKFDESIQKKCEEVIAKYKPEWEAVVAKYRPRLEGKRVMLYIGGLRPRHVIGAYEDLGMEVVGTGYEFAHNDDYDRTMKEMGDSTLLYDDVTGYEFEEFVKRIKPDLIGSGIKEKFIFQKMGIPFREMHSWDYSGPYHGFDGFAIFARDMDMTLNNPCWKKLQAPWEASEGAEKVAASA
Sequence of UniProt P07328 (P07329 whole entry, chain 2 of 2, further chain): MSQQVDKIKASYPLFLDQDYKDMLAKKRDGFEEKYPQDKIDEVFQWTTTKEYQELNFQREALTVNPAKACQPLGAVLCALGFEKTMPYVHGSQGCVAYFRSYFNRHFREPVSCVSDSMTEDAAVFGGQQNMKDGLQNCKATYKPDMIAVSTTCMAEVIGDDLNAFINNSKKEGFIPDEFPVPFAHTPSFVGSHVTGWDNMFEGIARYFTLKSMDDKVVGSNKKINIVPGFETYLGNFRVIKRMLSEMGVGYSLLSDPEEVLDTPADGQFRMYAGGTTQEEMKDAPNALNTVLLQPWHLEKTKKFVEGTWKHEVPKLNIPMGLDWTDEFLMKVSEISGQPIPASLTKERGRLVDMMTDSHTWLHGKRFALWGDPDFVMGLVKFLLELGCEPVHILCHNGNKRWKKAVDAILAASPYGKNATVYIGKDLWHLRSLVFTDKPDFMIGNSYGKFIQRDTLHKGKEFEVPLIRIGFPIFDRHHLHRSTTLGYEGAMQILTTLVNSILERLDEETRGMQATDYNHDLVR

**Q.** Which stoichiometry N (Fe-protein per MoFe-protein) does the source give for “Fe-protein (iron protein of the MoFe-nitrogenase) from Azotobacter vinelandii (enzyme)” here?
**A.** 2 and 1
